{"source": "paper PMC10683372", "key": {"α‐thrombin (αT)": {"target": "α‐thrombin (αT)", "test": "enzyme inhibition (amidolytic activity on S2238)"}, "[1]": {"target": "[F]‐Haem(45–57), N^α‐fluoresceinated analogue of the peptide 45–57 (Haemadipsa sylvestris)", "test": "other fluorescence titration; thrombin (S195A by the methods) or its hirudin complex added to the fluoresceinated peptide (60 nM); excitation 492 nm, emission 516 nm; TBS, 25°C"}, "[2]": {"target": "recombinant wild type α‐thrombin", "test": "other fluorescence titration; intrinsic fluorescence of thrombin (50 nM) at 334 nm recorded at increasing peptide concentration; TBS pH 7.4, 0.15 M NaCl, 0.1% PEG-8000, 25°C; one-site model"}, "[3]": {"target": "recombinant wild type α‐thrombin", "test": "enzyme inhibition (amidolytic activity on S2238)"}}, "note": "Several values for one entry are separate records, joined by “and”; a condition that tells them apart may be missing. Equal values may be shown once. Bridge positions count the residues as written; N and C are the ends."}
{"substance": "full‐length haemadin Met5nLeu analogue (natural protein)", "values": [{"measurement": "fold increase of KI(fast) against wild-type haemadin", "setting": "α‐thrombin (αT)", "value": 2, "unit": "fold"}, {"measurement": "fold increase of KI(slow) against wild-type haemadin", "setting": "α‐thrombin (αT)", "value": 2, "unit": "fold"}]}
{"substance": "catalytically inactive αT S195A mutant (enzyme)", "values": [{"measurement": "Kd", "setting": "[1]", "value": 350, "unit": "nM"}]}
{"substance": "H-IRFGMGKVPCPDGEVGYTCDCGEKICLYGQSCNDGQCSGDPKPSSEFEEFEIDEEEK-OH (disulfide 10-19, 21-32, 26-37)", "values": [{"measurement": "T m higher than hirudin", "value": 22, "unit": "°C"}]}
{"substance": "Haem(45–57) (peptide)", "values": [{"measurement": "Kd", "setting": "[2]", "value": 1600, "unit": "nM"}]}
{"substance": "preformed S195A‐hirudin complex", "values": [{"measurement": "Kd", "setting": "[1]", "value": 12800, "unit": "nM"}]}
{"substance": "Haem(1–10) wild type (peptide)", "values": [{"measurement": "Ki", "setting": "α‐thrombin (αT)", "value": 1900, "unit": "nM"}]}
{"substance": "full‐length wild‐type haemadin 1–57 (natural protein)", "values": [{"measurement": "Ki", "setting": "[3]", "value": 0.000214, "unit": "nM"}, {"measurement": "koff", "setting": "[3]", "value": "4.83e-05", "unit": "s⁻¹"}, {"measurement": "kon", "setting": "[3]", "value": "2.25e+08", "unit": "M⁻¹ s⁻¹"}, {"measurement": "Ki", "setting": "α‐thrombin (αT)", "value": "0.00023 nM and 0.0015 nM"}]}
